In series [1] the target is Macaca mulatta TLR7 extracellular domain (Macaca mulatta). Kind of series: cryo-EM structure.
Series [2] has the same target. Kind of series: cryo-EM structure. This is another data set of the same source.
In series [3] the target is T1, TLR8 extracellular domain (Homo sapiens, UniProt Q9NR97 27-827).
T1 sequence: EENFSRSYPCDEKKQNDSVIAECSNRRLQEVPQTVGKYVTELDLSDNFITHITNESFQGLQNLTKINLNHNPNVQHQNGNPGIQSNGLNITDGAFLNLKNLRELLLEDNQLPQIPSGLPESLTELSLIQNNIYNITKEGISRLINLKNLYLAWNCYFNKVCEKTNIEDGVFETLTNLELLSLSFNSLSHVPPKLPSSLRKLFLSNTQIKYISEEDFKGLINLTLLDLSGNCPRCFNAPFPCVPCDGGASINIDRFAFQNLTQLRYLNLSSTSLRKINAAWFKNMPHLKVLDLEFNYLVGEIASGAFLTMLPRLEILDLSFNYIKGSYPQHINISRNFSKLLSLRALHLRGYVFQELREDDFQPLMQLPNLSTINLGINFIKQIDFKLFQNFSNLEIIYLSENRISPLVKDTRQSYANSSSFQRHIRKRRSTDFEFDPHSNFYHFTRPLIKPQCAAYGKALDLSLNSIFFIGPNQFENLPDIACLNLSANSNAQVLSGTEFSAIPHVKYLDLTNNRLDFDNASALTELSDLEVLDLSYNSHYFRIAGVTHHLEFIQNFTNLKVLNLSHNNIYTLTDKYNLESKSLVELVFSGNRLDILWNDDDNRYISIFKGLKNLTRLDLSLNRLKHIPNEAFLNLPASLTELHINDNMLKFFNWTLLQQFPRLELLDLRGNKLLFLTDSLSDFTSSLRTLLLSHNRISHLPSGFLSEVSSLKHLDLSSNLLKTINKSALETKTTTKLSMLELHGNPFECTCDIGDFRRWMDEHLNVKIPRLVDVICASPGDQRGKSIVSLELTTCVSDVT
Kind of series: SPR. A general note: Surface plasmon resonance follows binding to a sensor surface in real time, without labels.

In series [4] the target is T1, TLR8 extracellular domain. Kind of series: SPR. The source holds these as a separate data set.

Where two headings read alike, the source gives them in different places.

In general, stoichiometry N refers to a count of units in the complex or per binding partner. Consider “Macaca mulatta TLR7 extracellular domain (receptor)”, for which the stoichiometry N in series [1] and in series [2] was 2 in each case.

B1: GCC-v4 (mGdCdC) (XNA)
strand: GCC
modifications: 2'-OMe at G1; DNA C2 and C3; phosphorothioate linkages, stereorandom
As a reminder, the Kd is the concentration at which binding is half-saturated. A lower Kd goes with tighter binding. In series [3], B1 displayed a Kd of 8 µM.

B2: GAG-v1 (mGmAdG) (XNA)
strand: GAG
modifications: 2'-OMe at G1 and A2; DNA G3; phosphorothioate linkages, stereorandom
In the case of B2, in series [4], the Kd is 4 µM.
